According to patent US20120316071A1 (published 2012):

Assays:
[1] = target: T1, rHuman ErbB2/Fc Chimera, CF (R&D Systems Cat#1129-ER) (human, UniProt P04626 23-652); assay: ECL multispot (MSD) assay, antigen spotted on plate, 20 nM Fab;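 also: purified Fab bound to plate-spotted antigen for 1 h at 20 °C, labelled detection antibody added, ratio of antigen ECL signal to same-well blank, ratio ≥4 counted as binder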
T1 construct: Bought recombinant protein; also called human epidermal growth factor 2 receptor; Fc part of the bought chimera not given

[2] = target: T2, rHuman HGF R/c-MET/Fc Chimera, CF (R&D Systems Cat#358-MT/CF) (human, UniProt P08581 25-932); assay: as above
T2 construct: Bought recombinant protein; also called HGF R/Fc; hepatocyte growth factor receptor; Fc part of the bought chimera not given
T2 sequence (P08581 25-932, change not shown): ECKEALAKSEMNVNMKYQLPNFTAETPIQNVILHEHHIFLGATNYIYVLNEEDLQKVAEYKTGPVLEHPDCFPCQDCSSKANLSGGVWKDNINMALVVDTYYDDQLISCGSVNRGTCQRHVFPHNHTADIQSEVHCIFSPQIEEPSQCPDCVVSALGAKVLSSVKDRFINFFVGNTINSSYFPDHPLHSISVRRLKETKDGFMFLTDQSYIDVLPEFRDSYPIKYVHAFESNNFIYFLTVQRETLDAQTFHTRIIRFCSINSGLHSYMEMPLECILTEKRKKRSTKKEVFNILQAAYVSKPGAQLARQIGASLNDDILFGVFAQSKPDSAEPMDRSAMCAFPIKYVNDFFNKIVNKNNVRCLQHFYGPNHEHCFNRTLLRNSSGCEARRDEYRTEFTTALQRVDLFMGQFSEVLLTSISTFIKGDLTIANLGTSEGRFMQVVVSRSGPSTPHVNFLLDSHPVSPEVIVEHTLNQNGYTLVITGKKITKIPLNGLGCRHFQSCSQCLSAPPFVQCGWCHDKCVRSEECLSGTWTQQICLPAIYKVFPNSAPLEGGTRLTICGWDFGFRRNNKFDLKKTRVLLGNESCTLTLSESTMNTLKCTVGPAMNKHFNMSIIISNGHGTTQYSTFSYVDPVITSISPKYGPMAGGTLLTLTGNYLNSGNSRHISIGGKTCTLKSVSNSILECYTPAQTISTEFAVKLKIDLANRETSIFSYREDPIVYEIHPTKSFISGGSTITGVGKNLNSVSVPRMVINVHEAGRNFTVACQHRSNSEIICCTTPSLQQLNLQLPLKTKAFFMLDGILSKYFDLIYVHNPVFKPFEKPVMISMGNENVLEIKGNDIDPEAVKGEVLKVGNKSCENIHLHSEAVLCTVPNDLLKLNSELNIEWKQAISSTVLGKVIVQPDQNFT

[3] = target: T3, rHuman Erythropoietin R/Fc Chimera, CF (R&D Systems Cat#963-ER) (human, UniProt P19235 25-250); assay: as above
T3 construct: Bought recombinant protein; also called EPO R; EPO R/Fc; Fc part of the bought chimera not given
T3 sequence (looked up): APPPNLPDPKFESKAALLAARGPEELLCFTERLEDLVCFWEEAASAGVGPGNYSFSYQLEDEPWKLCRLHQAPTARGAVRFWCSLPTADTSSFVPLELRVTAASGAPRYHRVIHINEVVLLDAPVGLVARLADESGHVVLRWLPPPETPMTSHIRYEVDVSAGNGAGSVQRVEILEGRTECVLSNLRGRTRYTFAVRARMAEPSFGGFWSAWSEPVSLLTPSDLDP

[4] = target: T4, rHuman CD44/Fc Chimera, CF (R&D Systems Cat#3660-CD) (human, UniProt P16070 21-220); assay: as above
T4 construct: Bought recombinant protein; Fc part of the bought chimera not given

[5] = target: T5, Recombinant Human DLL4 (R&D Systems Cat#1506-D4/CF) (human, UniProt Q9NR61 27-524); assay: as above
T5 construct: Bought recombinant protein; also called delta-like protein 4; rHuman DLL4

[6] = target: T6, rHuman IGF-1 sR, CF (R&D Systems Cat#391-GR) (human, UniProt P08069 31-932); assay: as above
T6 construct: Bought soluble receptor; also called insulin-like growth factor-1 soluble receptor

[7] = target: T7, rHuman EGF R/Fc Chimera, CF (R&D Systems Cat#344-ER) (human, UniProt P00533 25-645); assay: as above
T7 construct: Bought recombinant protein; also called epidermal growth factor receptor; Fc part of the bought chimera not given

[8] = target: T8, rHuman P-Cadherin/Fc Chimera, CF (R&D Systems Cat#861-PC) (human, UniProt P22223 108-654); assay: as above
T8 construct: Bought recombinant protein; Fc part of the bought chimera not given

[9] = target: T9, rHuman Notch-1/Fc Chimera, CF (R&D Systems Cat#3647-TK) (human, UniProt P46531 19-526); assay: as above
T9 construct: Bought recombinant protein; Fc part of the bought chimera not given

[10] = target: T10, rHuman EGF R/Fc Chimera, CF (R&D Systems Cat#344-ER) (human, UniProt P00533 25-645); assay: Multispot ECL (MSD), antigen spotted on plate, Fab 0.00391 uM; blank spot 576
T10 construct: Bought recombinant protein; also called epidermal growth factor receptor (EGF R); Fc part of the bought chimera not given

[11] = target: T11, rHuman Erythropoietin R/Fc Chimera, CF (R&D Systems Cat#963-ER) (human, UniProt P19235 25-250); assay: as above
T11 construct: Bought recombinant protein; also called EPO R/Fc; Epo R; Fc part of the bought chimera not given
T11 sequence (looked up): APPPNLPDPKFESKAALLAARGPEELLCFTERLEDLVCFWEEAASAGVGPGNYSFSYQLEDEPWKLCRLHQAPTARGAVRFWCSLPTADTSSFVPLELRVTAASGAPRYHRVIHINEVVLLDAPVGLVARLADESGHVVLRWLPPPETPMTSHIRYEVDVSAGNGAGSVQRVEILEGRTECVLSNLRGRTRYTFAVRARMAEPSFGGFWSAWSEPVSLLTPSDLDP

[12] = target: T12, rHuman IGF-1 sR, CF (R&D Systems Cat#391-GR) (human, UniProt P08069 31-932); assay: as above
T12 construct: Bought recombinant soluble receptor; also called insulin-like growth factor-1 soluble receptor

[13] = target: T10, rHuman EGF R/Fc Chimera, CF (R&D …); assay: Multispot ECL (MSD), antigen spotted on plate, Fab 0.0625 uM; blank spot 1738
[14] = target: T11, rHuman Erythropoietin R/Fc Chimera, CF …; assay: as above
[15] = target: T12, rHuman IGF-1 sR, CF (R&D Systems …); assay: as above
[16] = target: T10, rHuman EGF R/Fc Chimera, CF (R&D …); assay: Multispot ECL (MSD), antigen spotted on plate, Fab 0.25 uM; blank spot 6344
[17] = target: T11, rHuman Erythropoietin R/Fc Chimera, CF …; assay: as above
[18] = target: T12, rHuman IGF-1 sR, CF (R&D Systems …); assay: as above
[19] = target: T10, rHuman EGF R/Fc Chimera, CF (R&D …); assay: Multispot ECL (MSD), antigen spotted on plate, Fab 0.01563 uM; blank spot 906
[20] = target: T11, rHuman Erythropoietin R/Fc Chimera, CF …; assay: as above
[21] = target: T12, rHuman IGF-1 sR, CF (R&D Systems …); assay: as above

B1: Fab VH3-23_IGHD2-21*01>3_IGHJ6*01 H100E/S108P/Y113G Y59A & V2-13_IGLJ2*01 (Fab, V domains shown)
VH: EVQLLESGGGLVQPGGSLRLSCAASGFTFSSYAMSWVRQAPGKGLEWVSSISGSGGSTAYADSVKGRFTISRDNSKNTLYLQMNSLRAEDTAVYYCAKEEIVVVIAIPYYYYGYGMDVWGQGTLVTVSS
VL: SSELTQDPAVSVALGQTVRITCQGDSLRSYYASWYQQKPGQAPVLVIYGKNNRPSGIPDRFSGSSSGNTASLTITGAQAEDEADYYCNSRDSSGNHLVVFGGGTKLTVL
notes: Tested as a Fab made in E. coli; also called EPG Y59A
In the case of B1, the “ECL signal/blank ratio (read-out not given)” value [1] is reported as 1.6, the “ECL signal/blank ratio (read-out not given)” value [2] is reported as 3.3 and the “ECL signal/blank ratio (read-out not given)” value [3] is reported as 2.5. For the same binder, the “ECL signal/blank ratio (read-out not given)” value [4] was 1.4, the “ECL signal/blank ratio (read-out not given)” value [5] was 2.8 and the “ECL signal/blank ratio (read-out not given)” value [6] was 1.3. The “ECL signal/blank ratio (read-out not given)” value [7] was 1.4, the “ECL signal/blank ratio (read-out not given)” value [8] was 2.4 and the “ECL signal/blank ratio (read-out not given)” value [9] was 2.1.

B2: Fab VH1-46_IGHD2-15*01_IGHJ2*01 & L2_IGKJ1*01 (Fab, V domains shown)
VH: QVQLVQSGAEVKKPGASVKVSCKASGYTFTSYYMHWVRQAPGQGLEWMGIINPSGGSTSYAQKFQGRVTMTRDTSTSTVYMELSSLRSEDTAVYYCAREGYCSGGSCYSYWYFDLWGRGTLVTVSS
VL: not shown
notes: Germline library Fab made in E. coli; VH was cloned into Plasmid A (heavy chain constant region CH1, His6 and Flag tags) and the kappa VL into Plasmid C (kappa CL)
Work on B2 yielded an ECL signal [10] of 35900, an ECL signal [11] of 5020 and an ECL signal [12] of 822. The ECL signal [13] was 94800, the ECL signal [14] was 21100 and the ECL signal [15] was 3150. It also gave an ECL signal [16] of 117000, an ECL signal [17] of 49200 and an ECL signal [18] of 11000. The ECL signal [19] was 70800, the ECL signal [20] was 11300 and the ECL signal [21] was 1740.
